From patent US20110212528A1

Molecular target: GAL4/CfEcR-DEF (Choristoneura fumiferana)
Test: cell-based or functional assay

## VP16/HsRXRβ-EF substitution mutant A495S (receptor)
  fold induction (maximum, reporter gene transactivation, NIH3T3 cells, GS-E): 30 fold

## VP16/HsRXRβ-EF substitution mutant A528S (receptor)
  fold induction (maximum, reporter gene transactivation, NIH3T3 cells, GS-E): 21 fold
